Test: soluble fraction after stress (log2 fold change); higher = more stays soluble; pooled small domains, quantitative proteomics
Details: stress: 50 degC
How it was run: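 The stress applied to every library was 50°C. These custom libraries of small protein domains were pooled and measured at high throughput with quantitative proteomics as the read-out. Aggregation propensity is expressed as the base-two logarithm of the fold change in how much of each protein remains soluble. The higher the value, the more of that protein stays in solution.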

With “HMRGVDRPLTLPRHWRRNAGRLVKVTLANGSAVTGRVLDPGEERVTLEVSGERHEVAYADVKKALVQVEF” the “soluble fraction (log2)” value was -0.169.

In the case of “HMNEIALETAIEDVESFIQMQNRNLAFSIDEDTDRAVVTVRDSDSGDVIRQIPSEEVLALAERIQDLQQD”, the “soluble fraction (log2)” value is reported as 0.136.

With “HMTVLSKEEFVAIEQRLLQLLGTAPVDNKILLQQLSGIKKEKAWKVLSFLQAENKIGMDATGRVYL” the “soluble fraction (log2)” value was -0.439.

With “HMQALDETTVSRIRQKAAARNLLLKVLAGQLGVARPTLSNVLARREAPSAALAARIRAFLDSP” the “soluble fraction (log2)” value was -0.894.

For “HMQADKYKSYTATDFLKDKDFLRWQLFNGEEDMLFWGRVIEEYPALRSRVEEGIVLYKDNIR”, the “soluble fraction (log2)” value was -0.981.

For “HMGYVQLTAREKEVLQGLVDGASYKMIAAKLDIRFGTVHTHVKNIYEKLHVNSASEAVVKAIRQRL”, the “soluble fraction (log2)” value was -2.46.

With “HMLSLSDIINDVMERLTREKNLTFDELLGEKRERRRIVYTFLALLELIRLKMIKAYQTAAFGVIRIFPR” the “soluble fraction (log2)” value was -0.898.

In the case of “HMNPSFTMGTRIKEYIDAHYLEDLKLADIAEALHINLYYLSHTFKDLTGSSPMQYIIRRRIEE”, the “soluble fraction (log2)” value is reported as -0.778.

For “HMDIDNDIIENILVMGVTKAIAINLSNEFERHRIIANIEYAKEKSKNSEIKNISAFTVEAIRQDYANS”, the “soluble fraction (log2)” value was -1.1.

For “HMDELPKDILRSFGLPDKPWAMELLRNLRRDGFALDGETARAYAEMAAMKPPRTDARQWMTAADVAYRRG”, the “soluble fraction (log2)” value was -0.151.

For “HMPSLSREREAAILEMIERRPSTAEDVASGLGLAVNEVIKLLDGTALRGSVETFQSGEEIYYTRKR”, the “soluble fraction (log2)” value was 0.144.

In the case of “HMDSVTVPDISGYSPKAAEDSINNAGLKINEQGLSGSGDGQVVERTSPSAGSKVKKGDSVTVYYSKA”, the “soluble fraction (log2)” value is reported as 0.00106.

In the case of “HMGMAETTARILQLLGLLQSRRGWSGQELAERLGVTTRSVRRDVERLRELGYPVHASAGHGGGYQLGA”, the “soluble fraction (log2)” value is reported as -1.8.

With “HMTTLTPIGKMKGEIDGDFEAFYLAVDKDGQVYLNRDPDYSENRYEKSRGWELVTREQLAVYEKELHFIP” the “soluble fraction (log2)” value was -0.406.

For “HMSPRADRSVNLDVGETVQIDDWGADGTAQIRYRGAPWTAVLRPGHTPHPGPHRVIELVGSRLLVEP”, the “soluble fraction (log2)” value was -0.0121.

In the case of “HMKFSVEEQFKKSFPKNTYETFSETSLKGVYEVYNGKQVYYYLPVNDVLLLGSIVTKDGKNLTQESNSKK”, the “soluble fraction (log2)” value is reported as -0.0811.

In the case of “HMQSREISYSDFVASVERGEVATVILDGENIRFKGGDNVEYVTVRPADTNVTDLLIENQVVVRAEK”, the “soluble fraction (log2)” value is reported as 0.155.

In the case of “HMTPGPYETLKPAPLGSYIEPKIGFATAIEIARKEAVQLGIKTEAGGIWYGGDFPFYNVSFFDPDD”, the “soluble fraction (log2)” value is reported as -0.615.

For “HMSTKEFTIHAGEWSYRVSQKLENLGLVSDAKKFDQYLEDNGYSSKIKIGHYTISKDADFEEIAKEIT”, the “soluble fraction (log2)” value was 0.0383.

In the case of “HMAFKNGLLQTSKKVTLVRKVDGVTMRFDSLRAASVFLGRNKGYLSNVIKNGRTLDNYEIVVGE”, the “soluble fraction (log2)” value is reported as -0.991.

For “HMGQVFEGTFNRKANGKNSVTPAEGGEPVFIAERNSLHAMNGDLVKVSLLAKKKHQPREAQVIEILKRSD”, the “soluble fraction (log2)” value was 0.144.

With “HMDDHLRLSDNERISAMSALATHFTEGRLDTSEFDERTLAASQAKSRGDLRPLFDDLPGQLPAALSP” the “soluble fraction (log2)” value was 0.0376.

In the case of “HMKNLTERQQRIIALISENPQTTRAEIAGAIGVATKTIERELTTLSNIVYYVGPKKGGHWEIIK”, the “soluble fraction (log2)” value is reported as -0.865.

For “HMTFKDIMENYTISRIENTINSAVVFLDEINAYITIDKTQLPSNLRYDTDSKIMASQIPDDAKIKYFMIYW”, the “soluble fraction (log2)” value was -1.99.

In the case of “HMSIEHVPGYTTLSKREQEIVHALLTRKTPEELADDLSISINTLNKHISHIYHKLGIRGRMQLFDYA”, the “soluble fraction (log2)” value is reported as -0.284.

With “HMSEHKFIVPEEFNLKRLDQTVAAQFEKISRTKISKIIKSSLLKVNDKVVTDQSIKIKQDDVITFTEIKDQ” the “soluble fraction (log2)” value was 0.0288.

In the case of “HMREKPRETFQRIAEKVGQTLRKGPVRVQQMDLLFSESREQVMEVLRAMAESGEIRIQDDTLHWNGHT”, the “soluble fraction (log2)” value is reported as 0.311.

For “HMTPDLSEFKERLRQILPGEPIEVRTANDGIVLSGTVTSIAALDRALDLAERYAPDKVSNLLSVG”, the “soluble fraction (log2)” value was 0.0882.

Source: the domain aggregation screens of Martell et al. (2025)
